Results as given in the nanobody polyreactivity screen of Harvey et al. (2022).

Assay: yeast display, Sf9 membrane polyspecificity reagent, FACS + sequencing; frameworks hold sequencing errors
Summary of the method: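 In a synthetic yeast display library (Saccharomyces cerevisiae BJ5465), nanobody expression was induced with galactose for 36–48 hours. FACS gates were set low and high (top ~1%) using anti-HA fluorescence for expression and streptavidin fluorescence for binding of the Sf9 membrane reagent. Each polyreactivity label is drawn from the gate of origin.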

Row | Sequence | polyreactivity (PSR sort gate)
1 | QLQLGESGGGLVQAGGSLRLSCAASGRTFKDYAMGWYREAPGKERELVAAISWSGGDTYYADSVKGRFTISRDNAKNTVYLQMNSLKPEDTAVYYCNADPSGVFFYSLEFEYWGQGTQVTVSS | low polyreactivity
2 | QVQLVESGGGLVQAGGSLRLSCAASGLTFGYYAMVWYRQAPGKERELVAAINRSGNTNYADSVKGRFTISRDNAKNTVYLQMNCLKPEDTAVYYCAKRIWSILSPYKSSYGYDYWGQGSQVTVSS | low polyreactivity
3 | QVQLVESGGGLVQAGGSLRLSCAASGNTFSDYSMGWYRQAPGNERELVAAITISGGSTYYADSVKGRFTISRDNAKNTVYLQMNSLKPEDTAVYYCAADVWYILYDYWGQGTQVTVSS | low polyreactivity
4 | QVQLVESGGGLVHAGGSLRLSCAASGFILRSYGMGWYRQAPGKERELVAAITRGGSTYYADSVKGRFTISRDNAKNTVYLQMNSLKPEDTAVYYCAARTRYYSQQFDYWGQGTQVTVSS | high polyreactivity
5 | QVQLVESGGRLVQAGGSLRLSCAASGIIFPYYAMGWYRPAPGTVRELVAGISSSGGITYADSVKGRYTISRDNAKNTVYLPMNSLKPEDTAVYYCNAEYQWLEYDYWGQGTQVTVSS | low polyreactivity
6 | QVQLVESGGGLVQAGGSLRLSCAASGFTFYYYTMGWYRQAPGKERELVAVITLSDGSTNYADSVKGRFTISRDNAKNTVYLQMNSLKPEDTAVYYCDAKYVDYGYHGYDYWGQGTQVTVSS | low polyreactivity
7 | QVHLEESGRRLVQAGGSLRLSCAASGSIFSYYAMGWSRPAPGKEWELVAAISQSGGSTYYADSVKGRFTISGDNAKNTVDLQMNSLKPEDTAVYSCNAVARHTRAKYGSWGQGTQVTVSS | low polyreactivity
8 | QVQLVESGGGLVQAGGSLRLSCAASGSTFEYYAMGWYRQAPGKERELVAAISRTGGRTYYADSVKGRFTISRDNAKNTVYLQMNSLKPEDTAVYYCNAVTRIGGGDYDDWGQGTQVTVSS | low polyreactivity
9 | QVQLVESGGGLVQAGGSLRLSCAASGRIFSRYAMGWYRQAPGKERELVAAISRSGGSTYYADSVKGRFTISRDNAKNTVYLQMNSLKPEDTAVYYCAARNVFSYPPGSYYYWGQGTQVTVSS | high polyreactivity
10 | QVLLVESGGGLVQAGGSLRLSCAAYGRTFYGYAMGWYRQAPGKERELVATISSGDSTNYADSVKGRFTISRDNAKNTVYLQMNSLKPEDTAVYYCAAQGGDGVLALYYYWGQGTQVTVSS | low polyreactivity
11 | QVQLVESGGGLVQAGGSLRLSCAASGFILRTNAMGWYRQAPGKERELVAAISVSGGRTYYADSVKGRFTISRDNAKNTVYLQMNSLKPEDTAVYYCAARDSTKLLSGYTHYYWGQGTQVTVSS | high polyreactivity
12 | QVQLVESGGGLVQAGGSLRLSCAASGRISSLYAMGWYRQAPGKERELVAGITWRGGSTYYADSVKGRFTISRDNAKNTVYLQMNSLKPEDTAVYYCNAVWVQQVVGDGKRTWNFWYDYWGQGTQVTVSS | low polyreactivity
13 | QVQLVESGGGLVQAGGSLRLSCAASGITFPYYAMGWYRQAPGKERELVAAISSGGSTNYADSVKGRFTISRDNAKNTVYLQMNSLKPEDTAVYYCNADVRSYFYDYWGQGTQVTVSS | low polyreactivity
14 | QVQLVESGGGLDQAGGCLRLSSAASGIIFYYNRMGCDRQAPGKERDLVADISGDGSTNYADSVKGRFTISRDNAKNTLYLQINSLKPDDTAFYYCNSDDIFRPRDDLYDYWGQGTQVTVSS | low polyreactivity
15 | QVQLVESGGGLVQAGGSLRLSCAASGRTFSTNVMGWYRQAPGKERELVAAITTSSSRTYYADSVKGRFTISRDNAKNTVYLQMNSLKPEDTAVYYCAARIHGSWSFDYWGQCTQVTVSS | low polyreactivity
16 | QVQLVESGGGLVQAGGSLRLSCAASGRIFYSNAMGWYRQAPGKERELVAAISSSGGSTYYADSVKGRFTISRDNAKNTVDLQMNSLKPEDTAVYYCNAVHARYRSQGDYWGQGTQVTVSS | low polyreactivity

Row | Sequence | polyreactivity (PSR sort gate)
17 | QVQLVESGGGLVQAGGSLRLSCAASGSIFYGNTMGWYRQAPGKERELVAAISSGGSTKYADSVKGRFTISRDNAKNTVYLQMNSLKPEDTAVYYCAKVAPRSSSSQEYYYWGQGTQVTVSS | low polyreactivity
18 | QVQLVESGGGLVQAGGSLRLSCAASGRIFYVYAMGWYRQAPGKERELVAAITSSGGTTYYADSVKGRFTISRDNAKNTVYLQMNSLKPEDTAVYYCNLIYRYGWGDYWGQGTQVTVSS | high polyreactivity
19 | QVQLVESGGGLVQAGGSLRLSCAASGRTFRPYAMGWYRQAPGKERELVAAIDSSGTSTYYADSVKGRFTISRDNAKNTVYLKMNSLKPEDTAVYYCAKAWPDHWYSRYDYWGQGTQVTVSS | low polyreactivity
20 | QVQLVESAGGLVHAGGSLRLSCAASGFNFGFNAMGWDRQAPGKERELVAVISARGGRTYYADSVKGRFTISRDNAKNSVYLQMNSLKPEDSAVYYSAADDFFRYFFTHWVGDDYWGQGTQVSVSS | low polyreactivity
21 | QVQLVESGGGLVQAGGSLRLSCAASGFIFPNYAMGWYRQAPGKEREFVASISWSGGSTYYADSVKGRFTISRDNAKNTVYLQMNSLKPEDTEVYYCNAVAFFNHGAGEDYWGQGTQVTVSS | high polyreactivity
22 | QVQLVESGGGLVQAGGSLRLSCAASGRTFYTYAMGWYRQAPGKESELVATIRWSGGSTRYADSVKGRFTISRDYAKNTVYLQMNSLKPEDTAVYYCAADNYYRRKYKYDYWGQGNQVTVSS | high polyreactivity
23 | QVQLVESGGGLVQAGVSLRLSCAASGRIFHFYAMGCYRQAPGKERELVASITWRGGRTYYADSVKARFTISRDNAKNTVFLQMNSLKPEDTAVYYCAADFRSGFSSSTTPVQSDWGQGTQVTVSS | low polyreactivity
24 | QVQLVESWGGLVEAGGSLRLSCAASGRTFRSYAMVWYRQAPWKERELVAAISDGGSTNYADSVKGRFTISRDNAKNTVYLQMNSLKPEDTAVYYCAAVIFFAVFRFYYWGQGTQVTVSS | low polyreactivity
25 | QVQLVESGGGLVQAGGSLRLSCAASGRTFYRYAMGWYRQAPGKERELVAAITTSGGSTYYADSVKGRFTISRDNAKNTVYLQMNSLKPEDTAVYYCAATYYGYHIRDDYWGQGTQVTVSS | low polyreactivity
26 | QVQLVESGGGLVQAGGSLRLSCAASGSTFLWNAMGWYRQAPAKERELVAAISYSGGSTYYADSVKGRFTISRDNAMNTVYLQKNSLKPEDTAFYYCAKEWFYDPYPPGYDSWGQGPQVTVSS | low polyreactivity
27 | QVQLVESGGGLVQAGGSLRLSCAASGLTLYRNAMGWYRPAPGKVRELVAAITKSGARTYYADSVKGRFTISRDNAKNTVYLQMNSLKPEDTAVYYCAADALNTYNYWGQGTQVTVSS | high polyreactivity
28 | QVQLVESGGGLVQAGGSLRLSCAASGRTFFTYAMGWYRQAPGKERELVAAITGSGGSTSYADSVKGRFTISRDNAKNTVYLQMNSLKPEDTAVYYCAADWQELEYDYWGQGTQVNVSS | low polyreactivity
29 | QVQLVESGGGLVQAGGSLRLSCAASGRIFYAYAMGWYRQAPGKETELVAAITWRGGRTFYADSVKGRFTISRDNAKNTVYFQMNSLKPEDTAVYYCATRGAPYGMDYWGQGTQVTVSS | high polyreactivity
30 | QVQLVESGGGLVKAGGSLRLSSAASGRTFFRNAMGWYRQEPGKERELVAVISDNGGTNYADSVKGRFTMSRDNAKNTVYLQLNSLKPEDTAVDYCATPKRRRYPYYYWGLGTQVTVSS | high polyreactivity
31 | QVQLVESGGGLLQAGGSLRLSCAASGSTCHRNTMGWSRQAPGKESELVAGISLRGVRTYYADSVKSRFTISRDNAKNTVYLQMNSLKPEDTAVYYCAAGGPYTRNFKLGYWGQGTQVTVSS | high polyreactivity
32 | QVQLVESGGGLVQAGGSLRLSCAASGFTFRRYALGWYRQAPGKERELVAGITGRGGSTYYADSVKGRFTISRDNAKNTVYLQMNSLKPEDTAVYYCNKPRAARGYMTGQLDYWGQGTQVTVSS | high polyreactivity
